Numbered stars: 1 amine (or outer) side, 2 acyl side, 3 side chain; on linkers, the order of the positions; unused ones are H or OH. Bridge positions count the residues as written; N and C are the ends. Square brackets hold non-standard residues; d marks the D form. * marks the point of attachment. C20 diacid = O=C(O)CCCCCCCCCCCCCCCCCCC(=O)*; γGlu = O=C(O)[C@H](CCC(=O)[*:2])N[*:1]; 4Pal = N[C@@H](Cc1ccncc1)C(=O)O
B1: Example 85 (peptide)
peptide: XEKEKEKGEKXRSSCFGKRIDRIGHQSGLGCPSFRHGGKSSGAPPPS
modifications: HOOC-(CH2)18-CO-(γGlu)-EKEKEKGEK-βAla-RSS[CFGKRIDRIGHQSGLGC]PSFRHGGKSSGAPPPS-NH2; thioacetal linkage between the bracketed Cys
B2: Example 5 (peptide)
peptide: XEKEKEKGEKPRSSCFGKRIDRIGHYSGLGCPSFRHGSPSSGAPPPS
modifications: HOOC-(CH2)18-CO-(γGlu)-EKEKEKGEKPRSS[CFGKRIDRIGHYSGLGC]PSFRHGSPSSGAPPPS-NH2; thioacetal linkage between the bracketed Cys
B3: Example 37 (peptide)
peptide: XEKEKEKGSXRRSSCFGGRIDRIGHQSGLGCPSFRHGPSSGAPPPS
modifications: HOOC-(CH2)18-CO-(γGlu)-EKEKEKGS-4Pal-RRSS[CFGGRIDRIGHQSGLGC]PSFRH-GPSSGAPPPS-NH2; disulfide linkage between the bracketed Cys
B4: Example 97 (peptide)
peptide: SXRRSSCFGGRIDRIGHYSGLGCPSFRHGGPPSXKPPPK
modifications: HOOC-(CH2)18-CO-(γGlu)-EKEKEKG-(AEEA)6-S-4Pal-RRSS[CFGGRIDRIGHYSGLGC]PSFRHGGPPS-Aib-KPPPK-NH2; thioacetal linkage between the bracketed Cys
B5: Example 22 (peptide)
peptide: {C20 diacid}-[γGlu]EKEKEKGS[4Pal]RRSSCFGGRIDRIGAQSGLGCPSFRH-NH2
modifications: disulfide 15-31
SMILES: CC[C@H](C)[C@@H]1NC(=O)[C@H](CCCNC(=N)N)NC(=O)[C@H](CC(=O)O)NC(=O)[C@H]([C@@H](C)CC)NC(=O)[C@H](CCCNC(=N)N)NC(=O)CNC(=O)CNC(=O)[C@H](Cc2ccccc2)NC(=O)[C@@H](NC(=O)[C@H](CO)NC(=O)[C@H](CO)NC(=O)[C@H](CCCNC(=N)N)NC(=O)[C@H](CCCNC(=N)N)NC(=O)[C@H](Cc2ccncc2)NC(=O)[C@H](CO)NC(=O)CNC(=O)[C@H](CCCCN)NC(=O)[C@H](CCC(=O)O)NC(=O)[C@H](CCCCN)NC(=O)[C@H](CCC(=O)O)NC(=O)[C@H](CCCCN)NC(=O)[C@H](CCC(=O)O)NC(=O)CC[C@H](NC(=O)CCCCCCCCCCCCCCCCCCC(=O)O)C(=O)O)CSSC[C@@H](C(=O)N2CCC[C@H]2C(=O)N[C@@H](CO)C(=O)N[C@@H](Cc2ccccc2)C(=O)N[C@@H](CCCNC(=N)N)C(=O)N[C@@H](Cc2c[nH]cn2)C(N)=O)NC(=O)CNC(=O)[C@H](CC(C)C)NC(=O)CNC(=O)[C@H](CO)NC(=O)[C@H](CCC(N)=O)NC(=O)[C@H](C)NC(=O)CNC1=O
B6: Example 24 (peptide)
peptide: {C20 diacid}-[γGlu]EKEKEKGS[4Pal]RRSSCFGGRIDRIGHQSGLGCPSFR[4Pal]-NH2
modifications: disulfide 15-31
SMILES: CC[C@H](C)[C@@H]1NC(=O)[C@H](CCCNC(=N)N)NC(=O)[C@H](CC(=O)O)NC(=O)[C@H]([C@@H](C)CC)NC(=O)[C@H](CCCNC(=N)N)NC(=O)CNC(=O)CNC(=O)[C@H](Cc2ccccc2)NC(=O)[C@@H](NC(=O)[C@H](CO)NC(=O)[C@H](CO)NC(=O)[C@H](CCCNC(=N)N)NC(=O)[C@H](CCCNC(=N)N)NC(=O)[C@H](Cc2ccncc2)NC(=O)[C@H](CO)NC(=O)CNC(=O)[C@H](CCCCN)NC(=O)[C@H](CCC(=O)O)NC(=O)[C@H](CCCCN)NC(=O)[C@H](CCC(=O)O)NC(=O)[C@H](CCCCN)NC(=O)[C@H](CCC(=O)O)NC(=O)CC[C@H](NC(=O)CCCCCCCCCCCCCCCCCCC(=O)O)C(=O)O)CSSC[C@@H](C(=O)N2CCC[C@H]2C(=O)N[C@@H](CO)C(=O)N[C@@H](Cc2ccccc2)C(=O)N[C@@H](CCCNC(=N)N)C(=O)N[C@@H](Cc2ccncc2)C(N)=O)NC(=O)CNC(=O)[C@H](CC(C)C)NC(=O)CNC(=O)[C@H](CO)NC(=O)[C@H](CCC(N)=O)NC(=O)[C@H](Cc2c[nH]cn2)NC(=O)CNC1=O
B7: Example 30 (peptide)
peptide: XEKEKEKGSXKRSSCFGGKIDRIGHQSGLGCPSFRHGGPSSGAPPPS
modifications: HOOC-(CH2)18-CO-(γGlu)-EKEKEKGS-4Pal-KRSS[CFGGKIDRIGHQSGLGC]PSFRHGGPSSGAPPPS-NH2; disulfide linkage between the bracketed Cys
B8: Example 38 (peptide)
peptide: XEKEKEKGSXRRSSCFGGRIDRIGHYSGLGCPSFRHGGPSSGAPPPS
modifications: HOOC-(CH2)18-CO-(γGlu)-EKEKEKGS-4Pal-RRSS[CFGGRIDRIGHYSGLGC]PSFRHGGPSSGAPPPS-NH2; disulfide linkage between the bracketed Cys
B9: Example 31 (peptide)
peptide: XEKEKEKGSXKRSSCFGGKIDRIGXQSGLGCPSFRHGGPSSGAPPPS
modifications: HOOC-(CH2)18-CO-(γGlu)-EKEKEKGS-4Pal-KRSS[CFGGKIDRIG-Dap-QSGLGC]PSFRHGGPSSGAPPPS-NH2; disulfide linkage between the bracketed Cys
B10: Example 55 (peptide)
peptide: XEKEKEKGEKPRSSCFGGRIDRIGHYSGLGCPSFRHGGPSSGAPPPS
modifications: HOOC-(CH2)18-CO-(γGlu)-EKEKEKGEKPRSS[CFGGRIDRIGHYSGLGC]PSFRHGGPSSGAPPPS-NH2; disulfide linkage between the bracketed Cys
B11: Example 57 (peptide)
peptide: XEKEKEKGEKPRSSCFGGRIDRIGHYSGLGCPSFRHGGPSSGAPPPS
modifications: HOOC-(CH2)18-CO-(γGlu)-EKEKEKGEKPRSS[CFGGRIDRIGHYSGLGC]PSFRHGGPSSGAPPPS-NH2; thioacetal linkage between the bracketed Cys

Key:
[1] = target: T1, human NPRA (human, UniProt P16066 33-1061); assay: cell-based or functional assay
T1 sequence (looked up): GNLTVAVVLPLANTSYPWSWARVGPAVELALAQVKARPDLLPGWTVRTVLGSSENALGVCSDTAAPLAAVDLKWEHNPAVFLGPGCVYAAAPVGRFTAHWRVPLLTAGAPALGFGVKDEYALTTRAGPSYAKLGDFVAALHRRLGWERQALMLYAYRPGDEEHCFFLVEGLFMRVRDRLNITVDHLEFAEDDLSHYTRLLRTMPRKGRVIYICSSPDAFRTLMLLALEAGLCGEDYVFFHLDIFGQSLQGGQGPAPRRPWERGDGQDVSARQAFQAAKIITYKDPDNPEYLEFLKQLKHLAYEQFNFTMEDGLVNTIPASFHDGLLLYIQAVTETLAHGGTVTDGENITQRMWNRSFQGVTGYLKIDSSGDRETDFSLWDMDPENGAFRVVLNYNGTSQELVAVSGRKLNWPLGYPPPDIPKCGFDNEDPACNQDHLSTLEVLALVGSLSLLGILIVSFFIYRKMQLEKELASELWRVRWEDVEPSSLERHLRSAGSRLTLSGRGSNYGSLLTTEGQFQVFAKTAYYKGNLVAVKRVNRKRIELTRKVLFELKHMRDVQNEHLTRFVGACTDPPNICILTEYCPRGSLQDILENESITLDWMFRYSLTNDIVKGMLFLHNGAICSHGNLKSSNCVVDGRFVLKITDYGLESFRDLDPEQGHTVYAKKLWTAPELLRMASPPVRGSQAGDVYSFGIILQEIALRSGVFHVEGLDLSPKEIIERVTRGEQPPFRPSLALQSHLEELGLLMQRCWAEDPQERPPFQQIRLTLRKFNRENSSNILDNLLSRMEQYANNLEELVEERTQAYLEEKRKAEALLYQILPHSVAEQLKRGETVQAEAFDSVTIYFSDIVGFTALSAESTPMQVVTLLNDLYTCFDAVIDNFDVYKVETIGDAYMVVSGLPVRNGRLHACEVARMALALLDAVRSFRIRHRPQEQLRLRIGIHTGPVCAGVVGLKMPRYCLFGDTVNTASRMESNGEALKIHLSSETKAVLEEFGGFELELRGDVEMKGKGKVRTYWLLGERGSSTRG

[2] = target: T2, rat NPRA (rat, UniProt P18910 29-1057); assay: cell-based or functional assay
T2 sequence (looked up): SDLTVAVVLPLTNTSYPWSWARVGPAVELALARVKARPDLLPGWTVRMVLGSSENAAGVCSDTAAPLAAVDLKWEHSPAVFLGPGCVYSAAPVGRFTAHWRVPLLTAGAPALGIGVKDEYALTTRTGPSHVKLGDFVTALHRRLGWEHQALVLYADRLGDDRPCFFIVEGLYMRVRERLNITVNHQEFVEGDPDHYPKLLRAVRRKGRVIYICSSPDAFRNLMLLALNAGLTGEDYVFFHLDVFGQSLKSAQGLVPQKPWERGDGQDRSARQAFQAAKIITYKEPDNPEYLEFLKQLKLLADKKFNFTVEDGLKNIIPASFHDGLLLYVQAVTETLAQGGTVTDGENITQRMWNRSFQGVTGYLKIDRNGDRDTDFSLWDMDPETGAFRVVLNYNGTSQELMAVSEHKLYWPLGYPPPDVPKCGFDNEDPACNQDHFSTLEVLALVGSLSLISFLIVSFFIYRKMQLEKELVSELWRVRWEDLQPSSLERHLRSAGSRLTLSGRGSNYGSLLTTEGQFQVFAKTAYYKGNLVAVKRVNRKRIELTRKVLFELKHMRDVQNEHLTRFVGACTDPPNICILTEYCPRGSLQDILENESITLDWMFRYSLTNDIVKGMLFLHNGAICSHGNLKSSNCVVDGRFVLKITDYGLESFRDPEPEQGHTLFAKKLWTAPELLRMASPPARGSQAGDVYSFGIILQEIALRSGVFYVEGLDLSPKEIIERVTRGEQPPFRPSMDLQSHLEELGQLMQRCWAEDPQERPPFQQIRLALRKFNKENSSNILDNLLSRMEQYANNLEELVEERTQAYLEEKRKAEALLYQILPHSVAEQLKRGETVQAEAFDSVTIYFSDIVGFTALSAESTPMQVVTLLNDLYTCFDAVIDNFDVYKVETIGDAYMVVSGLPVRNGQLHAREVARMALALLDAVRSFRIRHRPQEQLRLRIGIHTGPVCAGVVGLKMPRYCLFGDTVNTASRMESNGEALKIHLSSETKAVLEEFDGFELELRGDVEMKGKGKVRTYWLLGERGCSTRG

Binder	cGMP Assay (EC50, pM) w/Casein [1]	cGMP Assay (EC50, pM) w/BSA [2]	cGMP Assay (EC50, pM) w/Casein [2]	cGMP Assay (EC50, pM) w/BSA [1]
B1	361 pM			
B2		276000 pM	1130 pM	
{C20 diacid}-[γGlu]EKEKEKGS[4Pal]KRSSCFGGKIDRIGHQSGLGCPSFRHGPSSGAPPPS-NH2 (disulfide 15-31) [Example 33]	199 pM	112000 pM	383 pM	22200 pM
{C20 diacid}-[γGlu]EKEKEKGS[4Pal]RRSSCFGGRIGRIGHQSGLGCPSFRHGGPSSGAPPPS-NH2 (disulfide 15-31) [Example 29]	482 pM	1.91e+06 pM	16800 pM	32200 pM
B3		84600 pM		
B4	720 pM			
B5	840 pM	192000 pM	1690 pM	25100 pM
{C20 diacid}-[γGlu]EKEKEKGS[4Pal]RRSSCFGGRIDRIGHQSGLGCPSFRHRITAREDKQGEA-NH2 (disulfide 15-31) [Example 26]	682 pM	119000 pM	803 pM	17800 pM
B6	560 pM	66100 pM	703 pM	21000 pM
{C20 diacid}-[γGlu]EKEKEKGS[4Pal]RRSSCFGGRIDRIGHQSGLGCPSFRHRITAREDKQGYA-NH2 (disulfide 15-31) [Example 25]	436 pM	57300 pM	654 pM	12000 pM
B7			1130 pM	
B8		40500 pM		
B9			12200 pM	
B10			493 pM	
B11			9500 pM	

Reference: patent publication US20240174727A1, “LONG-ACTING NATRIURETIC PEPTIDES AND USES THEREOF” (Eli Lilly and Company, priority 2022, published 2024)
